# Test results published in article PMC12297555.
# T1: ScoC (Geobacillus kaustophilus strain T-1, UniProt Q5L293 1-201)
# T1 sequence: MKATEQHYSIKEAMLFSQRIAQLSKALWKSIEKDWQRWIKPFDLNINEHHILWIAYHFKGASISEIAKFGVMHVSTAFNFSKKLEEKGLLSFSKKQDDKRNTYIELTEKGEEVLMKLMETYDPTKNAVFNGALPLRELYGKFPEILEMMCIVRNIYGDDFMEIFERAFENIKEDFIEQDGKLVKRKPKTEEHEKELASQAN
# Target: T1, ScoC
# Assay: X-ray crystallography
binder,measurement,value
"Oligo 4, 23-bp symmetric palindromic dsDNA (dsDNA) DNA 1: AATATTATTAACAAAATAATATT DNA 2: AATATTATTTTGTTAATAATATT",binding result,binds
